Target: T1, recombinant FcRn (FCGRT ectodomain with β-2-Microglobulin), expressed in CHO-S cells (human, UniProt P55899 24-297; P61769 21-119)
T1 construct: signal peptide in the construct; ectodomain of human FCGRT (FcRn heavy chain), Met1-Ser297, followed by a C-terminal thrombin cleavage site before the tags; β-2-Microglobulin, Met1-Met119; also called neonatal Fc receptor; source: CHO-S cells, electroporated with both plasmids, purified from the media (StrepTrap XT)
Assay: BLI; HIS1K biosensors loaded with HAstV-8 spike (6 μg/ml); FcRn in solution, 1,000 to 62.5 nM (mutant spike: 2,000 nM only); 0.1M sodium phosphate, 150 mM NaCl, 0.05% Tween-20, pH 7.0; 25 °C; 1:1 binding model; triplicate
Details: both partners purified

T1 sequence (P55899 24-297, chain 1 of 2): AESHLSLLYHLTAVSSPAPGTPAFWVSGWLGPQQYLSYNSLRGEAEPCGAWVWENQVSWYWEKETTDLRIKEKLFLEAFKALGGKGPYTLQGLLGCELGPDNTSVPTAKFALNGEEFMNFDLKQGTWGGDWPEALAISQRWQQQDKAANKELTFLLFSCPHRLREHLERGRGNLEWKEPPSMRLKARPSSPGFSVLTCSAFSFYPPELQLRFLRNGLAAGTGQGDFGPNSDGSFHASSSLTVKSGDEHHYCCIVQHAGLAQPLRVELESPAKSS
T1 sequence (P61769 21-119, chain 2 of 2): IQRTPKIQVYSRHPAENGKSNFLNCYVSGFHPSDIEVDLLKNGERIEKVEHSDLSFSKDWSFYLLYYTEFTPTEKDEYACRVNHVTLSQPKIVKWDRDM

B1: recombinant WT HAstV-8 capsid spike (domain or fragment)
chain: GEQFRVLLTVGPPMAPNTANSQNWVNKTIVPPENQYTVKIGIDLEHYTTMQGFTPVESVSWYTADFQPSDEPSPIPGLYARVNNTKKADVYGVQQFKSSHTNNRHQITSVFLVRVTTSFQVINYTSYFIRGAESGSNVSNLKIRDQTYHTPLQFTQGKWYLLTSTVMHDGPTSSGWVWMNQELTNNIAYRVDPGMMYLITPPPAASQLYFELHTVLPQA
modifications: Wild-type spike. Limits are not printed: about 429-647 is taken by convention from related HAstV spike constructs and is close to the VP25 feature 424-648. The C-terminal thrombin site and His10 tag …
Question: Which Kd does the source give for B1 here?
Answer: The Kd was roughly 280 nM.

From PMC12289001, “Functional characterization of DPP4 and FcRn as receptor and coreceptor for classical human astroviruses in Caco-2 cells” (PLOS Pathogens, 2025)
